The record followed here is US6429304 (University of California, dated 2002).

This test deals with T1, p80 delta 560-690 (S. purpuratus p80 katanin lacking the C-terminal 130 amino acids), in vitro translated … (Strongylocentrotus purpuratus, UniProt O61585 1-559).
T1 construct: The residues kept are derived from the deletion named; also called delta 560-690 derivative of p80; not shown: 37 amino acid N-terminal S-Tag from pCITE-4a+ (Novagen)
T1 sequence: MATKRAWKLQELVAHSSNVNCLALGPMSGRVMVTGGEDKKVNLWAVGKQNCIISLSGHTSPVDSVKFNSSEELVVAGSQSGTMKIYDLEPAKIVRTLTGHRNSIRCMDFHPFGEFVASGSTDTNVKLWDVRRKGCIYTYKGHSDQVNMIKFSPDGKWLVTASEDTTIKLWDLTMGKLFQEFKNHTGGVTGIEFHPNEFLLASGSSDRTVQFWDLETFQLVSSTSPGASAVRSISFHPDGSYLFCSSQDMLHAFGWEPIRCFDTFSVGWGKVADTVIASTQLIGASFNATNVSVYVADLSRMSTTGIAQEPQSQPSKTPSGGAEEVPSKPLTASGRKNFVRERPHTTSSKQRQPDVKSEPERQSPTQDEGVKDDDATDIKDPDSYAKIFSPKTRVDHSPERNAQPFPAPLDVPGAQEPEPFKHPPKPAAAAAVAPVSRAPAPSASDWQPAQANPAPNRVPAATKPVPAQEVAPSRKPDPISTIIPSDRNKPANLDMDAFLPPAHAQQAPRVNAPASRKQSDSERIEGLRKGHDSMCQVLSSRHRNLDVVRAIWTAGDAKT
The test can be described thus: co-translation in rabbit reticulocyte lysate, immunoprecipitation with anti-p60 antibody. How it is done: In vitro synthesis of proteins directly from plasmid DNAs was accomplished using the Single Tube Protein System 2, T7 (Novagen). […] For immunoprecipitations, lysates were incubated on ice with Pansorbin (Calbiochem)-antibody complexes, washed in NET buffer (50 mM Tris-Cl (pH 7.5), 150 mM NaCl, 0.1% Nonidet P40, 1 mM EDTA (pH 8.0), 0.25% gelatin and 0.02% sodium azide), then resuspended in SDS-PAGE sample buffer. In vitro translation products in both the pellets and supernatants from the immunoprecipitations were resolved by SDS-PAGE, transferred to nitrocellulose, probed with S-protein HRP conjugate (Novagen) and detected by chemiluminescence.

B1: in vitro translated S. purpuratus p60 katanin with 37 amino acid N-terminal S-Tag (enzyme)
chain: MSVDEICENTKMGREYALLGNYETSLVYYQGVLQQIQKLLTSVHEPQRKHQWQTIRQELSQEYEHVKNITKTLNGFKSEPAAPEPAPNHRAAPFSHHQHAAKPAAAEPARDPDVWPPPTPVDHRPSPPYQRAARKDPPRRSEPSKPANRAPGNDRGGRGPSDRRGDARSGGGGRGGARGSDKDKNRGGKSDKDKKAPSGEEGDEKKFDPAGYDKDLVENLERDIVQRNPNVHWADIAGLTEAKRLLEEAVVLPLWMPDYFKGIRRPWKGVLMVGPPGTGKTMLAKAVATECGTTFFNVSSASLTSKYHGESEKLVRLLFEMARFYAPSTIFIDEIDSICSKRGTGSEHEASRRVKSELLIQMDGVSGPSAGEESSKMVMVLAATNFPWDIDEALRRRLEKRIYIPLPEIDGREQLLRINLKEVPLADDIDLKSIAEKMDGYSGADITNVCRDASMMAMRRRIQGLRPEEIRHIPKEELNQPSTPADFLLALQKVSKSVGKEDLVKYMAWMEEFGSV
notes: Made in a rabbit reticulocyte coupled transcription-translation reaction; not shown: 37 amino acid N-terminal S-Tag from pCITE-4a+ (Novagen)
For B1, the binding result is “no binding”.
